These results are taken from patent US20250333498A1 (BIO THERA SOLUTIONS, published 2025).

Residue numbers refer to the chain shown, from its start. Names and notes keep the numbering of the source.

For experiment [1], the target named is T1, human CLDN18.2 (human).
T1 construct: The cell line is named under assay; also called claudin-18 isoform 2
As to the kind of experiment: flow cytometry on KATOIII cells (item 2).

Experiment [2] concerns the target T1, human CLDN18.2. As to the kind of experiment: flow cytometry on CHO-CLDN18.2 cells.
Experiment [3] deals with T1, human CLDN18.2. As to the kind of experiment: cell-based or functional assay.
In experiment [4] the target is T1, human CLDN18.2. The experiment can be described thus: flow cytometry on KATOIII cells (item 3); KATOIII cells; item 3, compared with the humanized antibodies.
Protocol: (§1) Flow cytometry was used to detect the binding capacity of anti-CLDN18.2 antibodies and ADCs to cells expressing CLDN18.2, and the specificity of not binding to CLDN18.1 of the antibody was further detected. […] The mixture was incubated at 4° C. for 1 h and washed twice with PBS.
Experiment [5] has as its target T1, human CLDN18.2. The experiment can be described thus: flow cytometry on KATOIII cells (CLDN18.2 positive), PE anti-human IgG-Fc secondary antibody.
Protocol: as §1
In experiment [6] the target is T1, human CLDN18.2. The experiment can be described thus: flow cytometry on KATOIII cells (item 2); KATOIII cells; item 2, compared with IMAB362.
Protocol: as §1
Experiment [7] addresses T1, human CLDN18.2. The experiment can be described thus: flow cytometry on CHO-CLDN18.2 cells; CHO-CLDN18.2 cells.
Protocol: as §1
Experiment [8] deals with T1, human CLDN18.2. The experiment can be described thus: flow cytometry on KATOIII cells (item 3); KATOIII cells.
Protocol: as §1
Another experiment deals with human CLDN18.1 (human, UniProt P56856 1-261). The experiment can be described thus: flow cytometry on CHO-CLDN18.1 cells, PE anti-human IgG-Fc secondary antibody.
Sequence of human CLDN18.1 (P56856 whole entry): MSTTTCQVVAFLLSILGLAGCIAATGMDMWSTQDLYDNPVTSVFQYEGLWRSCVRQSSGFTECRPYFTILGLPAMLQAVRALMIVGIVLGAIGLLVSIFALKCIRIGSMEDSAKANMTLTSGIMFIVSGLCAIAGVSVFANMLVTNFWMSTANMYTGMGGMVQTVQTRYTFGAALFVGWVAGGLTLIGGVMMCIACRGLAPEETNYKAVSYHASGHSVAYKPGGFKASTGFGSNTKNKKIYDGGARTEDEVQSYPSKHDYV

Protocol for human CLDN18.1: as §1

B1: positive Antibody IMAB362 (antibody, V domains shown)
VH: QVQLQQPGAELVRPGASVKLSCKASGYTFTSYWINWVKQRPGQGLEWIGNIYPSDSYTNYNQKFKDKATLTVDKSSSTAYMQLSSPTSEDSAVYYCTRSWRGNSFDYWGQGTTLTVSS
VL: DIVMTQSPSSLTVTAGEKVTMSCKSSQSLLNSGNQKNYLTWYQQKPGQPPKLLIYWASTRESGVPDRFTGSGSGTDFTLTISSVQAEDLAVYYCQNDYSYPFTFGSGTKLEIKR
In the experiment with human CLDN18.2 [1], B1 registered an EC50 of 8.08 nM. Further, the EC50 in the experiment with human CLDN18.2 [2] was determined as 30 nM. In the experiment with human CLDN18.2 [3], the “ADCC Reporter Bioassay EC50 (luciferase, Jurkat-NFAT-luc-FcγRIIIa effector cells)” value was 0.795 nM and the “CDC IC50 (cell killing rate of CHO-CLDN18.2 cells with 5% human serum complement, CCK-8)” value stood at 5.87 nM.

B2: chimeric Antibody CH239H-2-K-6 (antibody, human IgG1, kappa, V domains shown)
VH: EVKLQESGGGLVKPGGSLKVSCAASGFTFSDYGMHWVRQAPEKGLEWVAYISRGRSTTYSTDTVKGRFTISRDSAKHTLFLQMTSLRSEDTAMYYCARGSYYGNAMDYWGQGTSVTVSS
VL: B1 VL with K18R, K36R, Y93F, N96S, D97A
notes: Chimeric antibody (murine variable region + human constant region)
As for B2, the EC50 was 6.11 nM with human CLDN18.2 [4], 6.29 nM in the experiment with human CLDN18.2 [6] and 19.9 nM with human CLDN18.2 [7]. The “EC50 (read off the curve)” value with human CLDN18.2 [5] is approximately 20 nM.

B3: chimeric antibody CH101H1-K-1 (antibody, human IgG1, kappa, V domains shown)
VH: EVQLQESGPELVKPGASVKISCKASGYSFTSYYIHWVKQRPGQGLEWIGWIYPGSGNTKYNEKFKGKATLTADTSSSTAYMQLSSLTSEDSAVYYCARGMDYGNYYLDYWGQGTTLTVSS
VL: DIVMTQSHKFMSTSVGDRVSITCKASQDVGTAVAWYQQKPGQSPKLLIYWASTRHTGVPDRFTGSGSGTDFTLTISNVQSEDLADYFCQQYSSYLTFGAGTKLELKR
notes: as for B2
B3: the “EC50 (read off the curve)” value with human CLDN18.2 [5] was approximately 10 nM.

B4: chimeric antibody CH394H2-K-1 (antibody, human IgG1, kappa, V domains shown)
VH: EVKLQESGAELMKPGASVKLSCKATGYTFTGYWIEWVKQRPGHGLEWIGEILPGSGSTNYNEKFKGKATFTADTSSNTAYMQLSSLTTEDSAIYYCARAPLEGLRSGFAYWGQGTLVTVSA
VL: DIVLTQSPASLAVSLGQRATISCRASESVDSYGNSFMHWYQQKPGQPPKLLIYRASNLESGIPARFSGSGSRTDFTLTINPVEADDVATYYCQQSNEDPRTFGGGTKLEIKR
notes: as for B2
Consider B4, for which the “EC50 (read off the curve)” value with human CLDN18.2 [5] is approximately 20 nM.

B5: humanized Antibody H239H-2a-K-6a (antibody, human IgG1, kappa, V domains shown)
VH: EVQLLESGGGLVQPGGSLRLSCAASGFTFSDYGMHWVRQAPGKGLEWVAYISRGRSTTYSTDTVKGRFTISRDSSKNTLYLQMNSLRAEDTAVYYCARGSYYGNAMDYWGQGTLVTVSS
VL: DIVMTQSPDSLAVSLGERATINCKSSQSLLNSGNQRNYLTWYQQKPGQPPKLLIYWASTRESGVPDRFSGSGSGTDFTLTISSLQAEDVAVYYCQSAYSYPFTFGGGTKLEIKR
notes: Humanized antibody (humanized variable region + human constant region)
On to B5, for which the EC50 in the experiment with human CLDN18.2 [8] turned out to be 6.2 nM; with human CLDN18.2 [7] it was 22.8 nM. The binding result with human CLDN18.1 was “no binding (tested: about 330 nM)”.

B6: humanized Antibody H239H-2b-K-6a (antibody, human IgG1, kappa, V domains shown)
VH: B5 VH with S74N
VL: B5 VL
notes: as for B5
Regarding B6, the EC50 with human CLDN18.2 [8] came out at 6.92 nM. The molecule also registered an EC50 with human CLDN18.2 [7] of 23.3 nM. In addition, in the experiment with human CLDN18.2 [3], the “ADCC Reporter Bioassay EC50 (luciferase, Jurkat-NFAT-luc-FcγRIIIa effector cells)” value was found to be 0.0625 nM and the “CDC IC50 (cell killing rate of CHO-CLDN18.2 cells with 5% human serum complement, CCK-8)” value was found to be 0.291 nM. The binding result with human CLDN18.1 is “no binding (tested: about 330 nM)”.
